Data reported in patent US7732162.

Experiments:
H-Gln-Arg-Gly-Ile-NH2 = test system: T1, H-Gln-Arg-Gly-Ile-NH2
T1 sequence: QRGI

H-Gln-Gln-OH = test system: T2, H-Gln-Gln-OH
T2 sequence: QQ

H-Gln-Gly-Pro-OH = test system: T3, H-Gln-Gly-Pro-OH
T3 sequence: QGP

[Gln^3]-glucagon(3-29) = [Gln^3]-glucagon(3-29) (UniProt P01275)
H-Gln-Gly-OH = test system: T4, H-Gln-Gly-OH
T4 sequence: QG

H-Gln-His-Tyr-Phe-NH2 = test system: T5, H-Gln-His-Tyr-Phe-NH2
T5 sequence: QHYF

H-Gln-Glu-Ala-Phe-NH2 = test system: T6, H-Gln-Glu-Ala-Phe-NH2
T6 sequence: QEAF

H-Gln-Glu-Tyr-Phe-NH2 = test system: T7, H-Gln-Glu-Tyr-Phe-NH2
T7 sequence: QEYF

[Gln^1]-GnRH = test system: T8, [Gln^1]-GnRH
T8 sequence: QHWSYGLRPG

[Gln^1]-Gastrin = test system: T9, [Gln^1]-Gastrin
T9 sequence: QGPWLEEEEEAYGWMDF

H-Gln-Tyr-Ala-OH = test system: T10, H-Gln-Tyr-Ala-OH
T10 sequence: QYA

H-Gln-Ser-Tyr-Phe-NH2 = test system: T11, H-Gln-Ser-Tyr-Phe-NH2
T11 sequence: QSYF

H-Gln-Lys-Arg-Leu-NH2 = test system: T12, H-Gln-Lys-Arg-Leu-NH2
T12 sequence: QKRL

H-Gln-Glu-Ala-Ala-NH2 = test system: T13, H-Gln-Glu-Ala-Ala-NH2
T13 sequence: QEAA

H-Gln-Glu-Tyr-NH2 = test system: T14, H-Gln-Glu-Tyr-NH2
T14 sequence: QEY

H-Gln-Asn-Gly-Ile-NH2 = test system: T15, H-Gln-Asn-Gly-Ile-NH2
T15 sequence: QNGI

H-Gln-Arg-Tyr-Phe-NH2 = test system: T16, H-Gln-Arg-Tyr-Phe-NH2
T16 sequence: QRYF

[1] = test system: T17, H-βhomoGln-Phe-Lys-Arg-Leu-Ala-NH2
T17 sequence: QFKRLA

H-Gln-Ala-NH2 = test system: T18, H-Gln-Ala-NH2
T18 sequence: QA

[2] = test system: T19, [Gln^5]-substance P(5-11)
T19 sequence: QQFFGLM

H-Gln-Glu-Tyr-Ala-NH2 = test system: T20, H-Gln-Glu-Tyr-Ala-NH2
T20 sequence: QEYA

[3] = test system: T21, H-Gln-Ala-Ala-Ala-Ala-NH2
T21 sequence: QAAAA

H-Gln-Gln-Tyr-Phe-NH2 = test system: T22, H-Gln-Gln-Tyr-Phe-NH2
T22 sequence: QQYF

H-Gln-Pro-Tyr-Phe-NH2 = test system: T23, H-Gln-Pro-Tyr-Phe-NH2
T23 sequence: QPYF

H-Gln-Glu-Asp-Leu-NH2 = test system: T24, H-Gln-Glu-Asp-Leu-NH2
T24 sequence: QEDL

[Gln^1]-FPP = test system: T25, [Gln^1]-FPP
T25 sequence: QEP

[4] = test system: T26, H-Gln-Ala-Ala-Ser-Ala-Ala-NH2
T26 sequence: QAASAA

H-Gln-Glu-OH = test system: T27, H-Gln-Glu-OH
T27 sequence: QE

H-Gln-Phe-Ala-NH2 = test system: T28, H-Gln-Phe-Ala-NH2
T28 sequence: QFA

H-Gln-Trp-Ala-NH2 = test system: T29, H-Gln-Trp-Ala-NH2
T29 sequence: QWA

H-Gln-Ala-OH = test system: T30, H-Gln-Ala-OH
T30 sequence: QA

H-Gln-Ala-Ala-NH2 = test system: T31, H-Gln-Ala-Ala-NH2
T31 sequence: QAA

[5] = test system: T32, H-Gln-cyclo(Nε-Lys-Arg-Pro-Ala-Gly-Phe)
T32 sequence: QKRPAGF

Chain of [Gln^3]-glucagon(3-29) (P01275 whole entry, looked up, tested part not stated): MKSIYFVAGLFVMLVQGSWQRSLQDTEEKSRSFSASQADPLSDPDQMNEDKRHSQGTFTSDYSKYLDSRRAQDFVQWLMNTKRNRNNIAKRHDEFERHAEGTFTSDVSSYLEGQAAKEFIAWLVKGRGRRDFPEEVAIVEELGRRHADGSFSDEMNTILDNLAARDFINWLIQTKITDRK

Substance: QC from papaya latex (Carica papaya glutaminyl cyclase)
- KM (H-Gln-Arg-Gly-Ile-NH2): 123 µM
- KM (0.05 M Tricine-NaOH, pH 8.0) (H-Gln-Arg-Gly-Ile-NH2): 0.106 mM
- KM (0.05 M Tricine-NaOH, pH 8.0, 0.5 M KCl) (H-Gln-Arg-Gly-Ile-NH2): 0.065 mM
- KM (H-Gln-Gln-OH): 44 µM
- KM (H-Gln-Gly-Pro-OH): 333 µM
- substrate conversion (kcat/KM column) ([Gln^3]-glucagon(3-29)): *
- KM (H-Gln-Gly-OH): 641 µM
- KM (H-Gln-His-Tyr-Phe-NH2): 92 µM
- KM (H-Gln-Glu-Ala-Phe-NH2): 81 µM
- KM (H-Gln-Glu-Tyr-Phe-NH2): 100 µM
- KM ([Gln^1]-GnRH): 169 µM
- KM ([Gln^1]-Gastrin): 34 µM
- KM (H-Gln-Tyr-Ala-OH): 63 µM
- KM (H-Gln-Ser-Tyr-Phe-NH2): 135 µM
- KM (H-Gln-Lys-Arg-Leu-NH2): 118 µM
- KM (0.05 M Tricine-NaOH, pH 8.0) (H-Gln-Lys-Arg-Leu-NH2): 0.102 mM
- KM (0.05 M Tricine-NaOH, pH 8.0, 0.5 M KCl) (H-Gln-Lys-Arg-Leu-NH2): 0.053 mM
- KM (H-Gln-Glu-Ala-Ala-NH2): 102 µM
- KM (H-Gln-Glu-Tyr-NH2): 103 µM
- KM (H-Gln-Asn-Gly-Ile-NH2): 153 µM
- KM (H-Gln-Arg-Tyr-Phe-NH2): 124 µM
- KM [1]: KM=3.1±0.3 mM
- KM (H-Gln-Ala-NH2): 212 µM
- substrate conversion (kcat/KM column) [2]: *
- KM (H-Gln-Glu-Tyr-Ala-NH2): 113 µM
- KM [3]: 197 µM
- KM (H-Gln-Gln-Tyr-Phe-NH2): 45 µM
- KM (H-Gln-Pro-Tyr-Phe-NH2): 149 µM
- KM (H-Gln-Glu-Asp-Leu-NH2): 107 µM
- KM (0.05 M Tricine-NaOH, pH 8.0) (H-Gln-Glu-Asp-Leu-NH2): 0.109 mM
- KM (0.05 M Tricine-NaOH, pH 8.0, 0.5 M KCl) (H-Gln-Glu-Asp-Leu-NH2): 0.094 mM
- KM ([Gln^1]-FPP): 232 µM
- KM [4]: 216 µM
- KM ([Gln^1]-Neurotensin): 40 µM
- KM (H-Gln-Glu-OH): 106 µM
- KM (0.05 M Tricine-NaOH, pH 8.0) (H-Gln-Glu-OH): 0.098 mM
- KM (0.05 M Tricine-NaOH, pH 8.0, 0.5 M KCl) (H-Gln-Glu-OH): 0.094 mM
- KM (H-Gln-Phe-Ala-NH2): 111 µM
- KM (H-Gln-Trp-Ala-NH2): 78 µM
- KM (0.05 M Tricine-NaOH, pH 8.0) (H-Gln-Trp-Ala-NH2): 0.079 mM
- KM (0.05 M Tricine-NaOH, pH 8.0, 0.5 M KCl) (H-Gln-Trp-Ala-NH2): 0.072 mM
- KM (H-Gln-Ala-OH): 158 µM
- KM (0.05 M Tricine-NaOH, pH 8.0) (H-Gln-Ala-OH): 0.137 mM
- KM (0.05 M Tricine-NaOH, pH 8.0, 0.5 M KCl) (H-Gln-Ala-OH): 0.143 mM
- KM (H-Gln-Ala-Ala-NH2): 164 µM
- KM [5]: KM-values of 240±14 µM and 133±5 µM for human and papaya QC, respectively
